This is an account of results in the nanobody polyreactivity screen of Harvey et al. (2022).

A short description of the data set: yeast display, Sf9 membrane polyspecificity reagent, FACS + sequencing; frameworks hold sequencing errors. The method, boiled down: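 Galactose-induced (36–48 hours) yeast carrying a synthetic nanobody display library were exposed to 10% biotinylated, detergent-solubilized Sf9 membrane reagent at 4 °C for 1 hour. FACS followed streptavidin microbead enrichment, using low and high (top ~1%) gates for expression (anti-HA) and reagent binding (streptavidin). Colony PCR, MiSeq 2 × 250 sequencing and CDR-length filtering followed. Labels for polyreactivity reflect the gate of origin.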
Regarding “HVQLVESGGGLVQAGGSLRVSCAASGSILTRNAMGWYRQAPGKERELVAAITGSGGRTYYADSVKGRFTISRDNAKNTVDLQMNSLKPEDTAVYYCAAGWRFGRYSGDYWGQGTQVTVSS”, the “polyreactivity (PSR sort gate)” value is recorded as “high polyreactivity”. The value for “QVQLVESAGGLVQAGGSLRLSCAASGRTFYPYAMGWYRQAPGKARELVAAIRSSGGTTYYADSVKGRFTISRDNAKNTVYVQMNSLKPEDTAVYYCAAFVDRQGGYYWGQGTQVTVSS” was “high polyreactivity”; that for “QVQLVESVGGLVQAGGSLRLSCAASGSTFRINAMGWYRQAPGKEMELVADINSGGNTTYADSVKGRFTISRDNAKNTVYLQMNSLKPEDTAVYYCAAEPVFDLWEFLLDYGYDYWGQGTQVTLSS” was “low polyreactivity”. In the case of “QVQLVESGGGLVQAGGSLRLSCAASGRIFGLYTMGWYRQAPGKEREFVAGITYSAGRTYYADSVKGRFTISRDNAKNTVYLQMNSLKPEDTAVYYCAATRRWYPTKLYGYWGQVTQVTVSS”, the “polyreactivity (PSR sort gate)” value is listed as “high polyreactivity”. To “PVQLVESGGGLVQAGGSLSLTCAASGSIFPYYTMRWYRPAPGKERELVATITGNGGSTYADSGKGRFTISRDNAKNTVYLQMNSLKPEDTAVYYCAVYGDSYWGAYYYSDGYWGQGTQVTVSS” belongs “low polyreactivity”; to “QVQLVESGGGLVQAGGSLRLSCAASGYIFTGNAMGWYRQAPGKERELVAAISKSGSRTYYADSVKGRFTISRDNAKNTVYLQMNSLKPEDTAVYYCNAYSARDSELDYWGQGTQVTVSS”, “high polyreactivity”; to “QVQLVESGGGLVQAGGSLRLSCAASGRTFGTKTMGWYRQAPGKERELVAGISRSGGRTYYADSVKGRFTISRDNAKNTVYLQMNSLKPEDTAVYYCAAVSYYQPLRRIMDYWGQGTQVTVSS”, “high polyreactivity”. To “QVQLVETGGGLVQAGGSLRLSCAASGRTYLIYAMGWYRQAPGKERELVAAIRDRGATTYYADSVKGRFTISRDNAKNTVYLQMNSLKPEETAVYYCAARNGAYPALKEGDYWGQGTQVTVSS” belongs “high polyreactivity”; to “QVQLVESGGGLVQAGGSLRLSCAASGFTFWRYAKGWYRHAPGKERELVAAISSGGSTNYADSVKGRFTISRDNAKNTVYIQMNSLKPEDTAVYYCNARYYHKRSTRVIFPYDYWGQGTQVTVSS”, “high polyreactivity”. Regarding “QVQLVESGGGLVLAGGSLRLSCPASGSIFGGYAMGWYRQAHGKERELVAAISYRGASTYYADSVKGRFTISRDNAKNTVYLQMNSLKPEDTAVYYCAVAARTRARVLYGYDYWGQGTQVTVSS”, the “polyreactivity (PSR sort gate)” value was “low polyreactivity”. In the case of “QVQLVESGGGLVQAGGSLRLSCAASGFTFTIYAMGSNRPAPGKERELVATISGRAGRTYYADSVKGRFTISRDNAKNTVYLQMNSLKPEDPAVYYCTAGQRRYPGLSYYWGQGTQVTVSS”, the “polyreactivity (PSR sort gate)” value is recorded as “high polyreactivity”. The value for “QVQLVESGGGLVQAGGSLRLSCAASGSTFYRNAMGWYRQAPGKERELVAGITSGVTTYYADSVKGRFTISRDNAKNTVYLQMNSLKPEDSAVYYCAVYWRGRGAFTYGSWGQGTQVTVSS” was “high polyreactivity”; that for “QVQLVESGGGLVQAGGSLRLSCASSGFIFFYYTKGWYRQAPGKERELVAAISTGGSTYYADSVKGRFTISRDNAKNTVYLQMNSLKPEDTAVYYCAALYWYEYTYLEYDYWGQGTQVTVSS” was “high polyreactivity”. The value for “QVQLVESGRGLVQAGGSLRLSCAASGFIFLKFAKGWYRQAPGKERELVARITSTGGSTYYADSVKGRFTISRDNAKNTVYLQMNSLKPEDTAVYYCARDTVPSSDPWYYAWGGFEFDYWGQGTQVTVSS” was “low polyreactivity”; that for “QVQLVESGGGLVQAGGSLRLSCAASGFIFGDYAMGWYRQAPGKERELVAAINRGASTYYADSVKGSFTISRDNPKNTVYLQMNSLTPEDTAVYYCAAAGNSRGGRGGYWGQGTQVSVSS” was “high polyreactivity”; that for “QLQLVESGGGLVQAGCSLRLSCADSGRNYTMGRYRQAPGKERELVDASSKSGGSTSYADSVKGRFTISRDNAKNTVYLQLNSLKPEDTAVYYCATALRGSQAYSVRAMNYWGQATQVTVSS” was “high polyreactivity”. To “QVQLVESGGGLVQAGGSLRLSCAASGSIFRTYTMGWYRQAPGKERELVAAITRSGGRTFYADSVKGRFTISRDTAKNTVYLQMHSLKPEDTAVYYCAAKRTGDYDWGQGTQVTVSS” belongs “high polyreactivity”. As to “QVQLVESGGGLVQAGGSLRLSCAASGLIFIVYAMGWSRQAPGKERELVAAISWSGGSTYYADSVKGRFTISRDNAKNTVYLQMNSLKPEDTAVYYCAAPSSVRGKVISADYGYWGQGTQVTVSS”, the “polyreactivity (PSR sort gate)” value is on record as “high polyreactivity”. To “QVQLVESGGGLVQAGGSLRLSCAASGSTFGWNAMGWYRQAPGKERELVAAITRGGRTTYADSVKGRFTISRDNAKNTVYLQMNSLKPEDTAVYYCAALHGRYPNRYDYWGQGTQVTVSS” belongs “low polyreactivity”; to “QVQLVESGGGLVQAGGSLRLSCAASGRIFSYYAMRWFRQAPGKERELVAAISSGGSTNYADSVKGRFTISRDNAKNTVYLQMNSLKPEDTAVYYCNAVRGWTTRYDYWGQGTQVTVSS”, “high polyreactivity”; to “QVQLVESGGGLVQAGGSLRLSCAASGSTFGVYAMGWYRQAPGKERELVAAINYSGRTYYADSVKGRFTISRDNAKNTVYLQMNSLKPEDTAVYYCAARIIVDDVGTKYYYWGQGTQVTVSS”, “high polyreactivity”. “QVQLVESGGGLVQAGGRLRLSCAASGRIFKTYAMGWYRQAPGKERELVAAISIRGGSTYYAVSVKGRFTISRDNAKNTVYLQMNSLKPEDTAVYYCNALYGRQIVDYDYWGQGTQVTVSS”: the “polyreactivity (PSR sort gate)” value is reported as “high polyreactivity”.

For “QVQLVESGGGLDQAGGSLRLSCAASGFIFFRYAMGWYRQAPRKEREMVAAISSSGGSTYYADSVKGRFTISRDNAKNTVYLQMNSLKPEDTAVYFCAAPRYPIFVGLGKDYWGQGTQVTVSS”, the “polyreactivity (PSR sort gate)” value is recorded as “high polyreactivity”.

In the case of “QVQLVESGGGLVQAGGSLRLSCAASGSTFKWYGRGWSRQAPGKDRELVATINYSSSTTYYADSVKGRFTISRDNAKNTVYLQMNSLKPEDTAVYYCAKGVYWGTKSTYDYWGQGTQVTVSS”, the “polyreactivity (PSR sort gate)” value was “high polyreactivity”. The value for “QVQLVESGGGLVQAGGSLRLSCAASGRTFTVYAMGWYRQAPGKERELVAAIRRTGSTYYADSVKGRFTISRDNAKNTVYLQMNSLKPEDTAVYYCNAEGSSVLTGYWGYPPYWDTYDYWGQGTQVTVSS” was “low polyreactivity”. To “QVKLVESGVGLVQAGGSLRLSCGASGFIFVRYAIVWSRQAPGKERDLVAAISGSGGRTYYAYSVKGRFTISRDNAKNTVYLKMNSLKPEDTSVYYCNVKSYTYGYLPYDYWGQGTQVTVSS” belongs “high polyreactivity”. “QVQLVESGGGLVQAGGSLRLSCAASGSTFYYYAMGWYRQAPGKERELVATITSGASTNYADSVKGRFTISRDNAKNTVYLQMNSLKPEDTAVYYSNAGSLTSYLPWSSYDYWGQGTQVTVSS”: the “polyreactivity (PSR sort gate)” value is “low polyreactivity”. In the case of “QVQLLESGGGLVQAGGSLRLSCAASGSTFRYYAMGWYRQAPGKERELVAAISKSGGRTYYADSVKGRFTISRDNAKHTVYLQMNSLKPEDTAVYYCAADSKEVRYDYWGQGTQVTVSS”, the “polyreactivity (PSR sort gate)” value was “high polyreactivity”.

Turning to “QVQLVESGGGLVQAGGSLRLSCAASGRIFGYYAMGWYRQAPGKERELVAAITRGGSTNYADSVKGRFTISRDNAKNTVYLQMNSLKPEDTAVYYCNARRYRPGSASYDYWGQGTQVTVSS”, the “polyreactivity (PSR sort gate)” value is given as “high polyreactivity”.

For the sequence “QVHLVESGGGLVQAGGSLRISCAASGLTFQRYAMGWYRQAPGKERELVASITGNGGSTYYADSVKGRFTISRDNAQNSVYLQMNSLKPEDTAVFYCNARRYVRTSQQPLYDYWGQGTQVTVSS”, the “polyreactivity (PSR sort gate)” value is on record as “high polyreactivity”. For “QVQLVETGGGLVQAGGILRLSCAASGSIFKAYAMGWYRQAPGKERELVAAITWSGGSTYYADSVKGRFTNSRDNAKNTVYLQMNSLKPEDTAVYYCAATLGLWAYYLYDYWGQGTQVTVSS”, the “polyreactivity (PSR sort gate)” value is given as “low polyreactivity”. As for “QVQLVESGGGLVQAGGSLRLSCAASGSIFDEYAMGWYRQAPGKERELVAAITRTGGRTYYADSVKGRFTISRDNAKNTVYLQMNSLKPEDTAVYYSAKGTNYRDDYWGQGTQVTVSS”, the “polyreactivity (PSR sort gate)” value is “low polyreactivity”. To “QVKLVESGGGLVQAGGSLRLSCAASGFTFSRNTRGWYRQAPGKERELVAAIDSTGGSTYYADSEKGRFTISRDNAKNTVYLQMNCLNPEDTAVYYCATVLPDGRVRLRILWGKRVWYDYWGQGTHVTVSS” belongs “low polyreactivity”. In the case of “QVQLVESGGGLVQAGGSLRLSSAASGSIFTGSALGWYRQAPGKEREFFARITKRGVSTYYADSVKGRFTISRDKAKNTVYLHMNSLKPEDTAVYYCNADRKFPYGSYETHDYWGQGPQVTVSS”, the “polyreactivity (PSR sort gate)” value was “high polyreactivity”. Regarding “QVQLVESGGGLVQAGGSLRLSCAASGSNFYGNAMGWYRQAPGKERELVAAISRSGGRSYYADSVKGRFTISRDNAKNTVYLHMNSLKPEATAVYYCAARQYQATLQYGYYPGYGYWGQGTQVTVSS”, the “polyreactivity (PSR sort gate)” value is “high polyreactivity”. Regarding “QVQLVESGGGLVQAGGSLRLSCAASGTFFIYAMGWYRQAPGKERELVATISTGGSTNYADSVKGRFTISRDNAKNTVYLQMNSLKPEDTAVYYCAAEWLYPHDGGYPRPMDYWGQGTQVTVSS”, the “polyreactivity (PSR sort gate)” value is given as “low polyreactivity”. The value for “QVQLVESGGGLVQAGGSLRLSCAASGSTFWFNAMGWYRQAPGKERELVAISGSVGSTYADSVKGRFTISRDNAKNTVYLQMNSLKPEDTAVYYCNADSVWYRNPWSFSPRYNYWGQGTQVTVSS” was “low polyreactivity”; that for “QFQLVESGGGLVKAGGSLRLSSAASGGTFGYYTMGWYRQAPGKERELVAAISSGGGTDYADSVKGRFTISRDNAKNTVYFQMTSLKPEDTALYYCATVSDYPWRYDYWVQGTQVTVSS” was “low polyreactivity”; that for “QVQLVESGGGLVQAGGSLRLSCAASGFTLYYYMGWYRQAPGKERELVARIRATGGSTYYADSVKGRFTISRDNAKNTVDLQMNSLKPEDTAVYYCAAKGVPRRYRPDMYYWGQGTQVTVSS” was “high polyreactivity”. Regarding “QVQLVESGGGLVQAGGSLRLSCAASGITLSQNAMGWYRQAPGKERELVAAIDSGGVDTYYADSVKGRFTISRDNAKNTVYLQMNSLKPEDTAVYYCAVDYSYEYEYWGQGTQVTVSS”, the “polyreactivity (PSR sort gate)” value was “low polyreactivity”.
